Measurements: patent US20230051266A1 (ABL BIO, published 2023)
Changes are numbered by the printed parent chain. In names and notes the source's numbering stands.

B1: 41B01 (anti-4-1BB monoclonal antibody) (antibody, V domains shown)
VH: EVQLLESGGGLVQPGGSLRLSCAASGFTFSSYDMSWVRQAPGKGLEWVSWISYSGGSIYYADSVKGRFTISRDNSKNTLYLQMNSLRAEDTAVYYCARDGQRNSMREFDYWGQGTLVTVSS
VL: QSVLTQPPSASGTPGRRVTISCSGSSSNIGNNYVTWYQQLPGTAPKLLIYADSHRPSGVPDRFSGSKSGTSASLAISGLRSEDEADYYCATWDYSLSGYVFGGGTKLTVL
notes: Tested as a human IgG type antibody (detected with anti-human IgG); also called 1A10
B2: 41B02 (anti-4-1BB monoclonal antibody) (antibody, V domains shown)
VH: EVQLLESGGGLVQPGGSLRLSCAASGFTFSGYDMSWVRQAPGKGLEWVSVIYPDDGNTYYADSVKGRFTISRDNSKNTLYLQMNSLRAEDAAVYYCAKHGGQKPTTKSSSAYGMDGWGQGTLVTVSS
VL: B1 VL
notes: Tested as a human IgG type antibody; also called 1A12
B3: 5B5(NA)x41B02 (bispecific antibody, human IgG1, kappa, N297A)
heavy: not shown
light: EIVLTQSPGTLSLSPGERATLSCRASQGIDSYVAWYQQKPGQAPRLLIYDASLRATGIPDRFSGSGSGTDFTLTISRLEPEDFAVYYCQQYNSWPITFGQGTKLEIKRTVAAPSVFIFPPSDEQLKSGTASVVCLLNNFYPREAKVQWKVDNALQSGNSQESVTEQDSKDSTYSLSSTLTLSKADYEKHKVYACEVTHQGLSSPVTKSFNRGEC
notes: IgG1 N297A-scFv (VL-(G4S)4-VH); also called 5B5(NA) x41B02 (1A12)
B4: 5B5(NA)x41B01 (bispecific antibody, human IgG1, kappa, N297A)
heavy: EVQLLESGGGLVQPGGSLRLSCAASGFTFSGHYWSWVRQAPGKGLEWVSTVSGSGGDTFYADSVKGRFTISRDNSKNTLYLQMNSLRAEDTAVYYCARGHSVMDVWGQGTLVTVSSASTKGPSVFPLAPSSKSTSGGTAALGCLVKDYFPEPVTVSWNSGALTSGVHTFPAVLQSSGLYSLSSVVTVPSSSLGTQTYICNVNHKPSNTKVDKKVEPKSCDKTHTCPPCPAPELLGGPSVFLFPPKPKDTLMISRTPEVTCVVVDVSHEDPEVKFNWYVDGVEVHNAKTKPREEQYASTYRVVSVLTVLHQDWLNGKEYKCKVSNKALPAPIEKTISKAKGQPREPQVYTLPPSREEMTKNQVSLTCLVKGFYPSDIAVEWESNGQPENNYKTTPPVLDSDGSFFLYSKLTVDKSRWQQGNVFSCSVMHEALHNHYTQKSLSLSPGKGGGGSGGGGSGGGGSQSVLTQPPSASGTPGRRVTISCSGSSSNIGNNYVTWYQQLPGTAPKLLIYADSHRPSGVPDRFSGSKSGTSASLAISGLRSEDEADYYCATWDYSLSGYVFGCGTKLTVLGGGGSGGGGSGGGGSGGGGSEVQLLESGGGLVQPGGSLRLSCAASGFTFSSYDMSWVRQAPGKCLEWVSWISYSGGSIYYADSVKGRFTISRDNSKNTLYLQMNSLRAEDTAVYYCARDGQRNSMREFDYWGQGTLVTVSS
light: B3 light
notes: IgG1 N297A-scFv; also called 5B5(NA) x41B01 (1A10)
B5: 5D5(NA)x41B02 (bispecific antibody, human IgG1, kappa, N297A)
heavy: not shown
light: B3 light with R24K, G28D, S31D, Y32D, V33I, A34N, Y91S, N92L, S93R, W94T
notes: IgG1 N297A-scFv (VL-(G4S)4-VH); also called 5D5(NA) x41B02 (1A12)
B6: 5D5(NA)x41B01 M12 (bispecific antibody, human IgG1, kappa, N297A)
heavy: not shown
light: B3 light with R24K, G28D, S31D, Y32D, V33I, A34N, Y91S, N92L, S93R, W94T
notes: also called 5D5(NA)x41B01 M12:WT; 5D5WT(NA)x41B01 M12
B7: 5B5(NA)xAB41 (bispecific antibody, human IgG1, kappa, N297A)
heavy: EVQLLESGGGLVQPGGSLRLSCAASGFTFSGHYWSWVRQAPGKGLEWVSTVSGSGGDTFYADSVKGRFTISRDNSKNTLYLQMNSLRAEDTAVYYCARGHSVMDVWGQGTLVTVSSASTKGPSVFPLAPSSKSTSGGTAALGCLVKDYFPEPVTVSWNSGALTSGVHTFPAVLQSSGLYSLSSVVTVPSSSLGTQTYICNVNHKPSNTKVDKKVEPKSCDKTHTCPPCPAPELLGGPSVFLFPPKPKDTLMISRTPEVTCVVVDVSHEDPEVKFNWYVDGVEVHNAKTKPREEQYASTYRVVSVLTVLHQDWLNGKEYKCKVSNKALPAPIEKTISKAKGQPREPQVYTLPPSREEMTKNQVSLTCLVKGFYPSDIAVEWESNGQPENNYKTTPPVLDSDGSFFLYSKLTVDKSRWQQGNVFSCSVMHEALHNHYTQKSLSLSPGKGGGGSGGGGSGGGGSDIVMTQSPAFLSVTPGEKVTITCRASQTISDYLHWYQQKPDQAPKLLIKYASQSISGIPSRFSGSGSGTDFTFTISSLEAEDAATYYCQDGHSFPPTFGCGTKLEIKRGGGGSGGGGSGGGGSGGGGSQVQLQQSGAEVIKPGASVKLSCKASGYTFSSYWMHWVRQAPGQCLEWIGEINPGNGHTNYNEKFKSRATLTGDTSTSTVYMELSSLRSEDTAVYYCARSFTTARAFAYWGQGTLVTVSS
light: B3 light
notes: IgG1 N297A-scFv (VL-(G4S)4-VH)
B8: 5D5(NA)x41B01 (bispecific antibody, human IgG1, kappa, N297A)
heavy: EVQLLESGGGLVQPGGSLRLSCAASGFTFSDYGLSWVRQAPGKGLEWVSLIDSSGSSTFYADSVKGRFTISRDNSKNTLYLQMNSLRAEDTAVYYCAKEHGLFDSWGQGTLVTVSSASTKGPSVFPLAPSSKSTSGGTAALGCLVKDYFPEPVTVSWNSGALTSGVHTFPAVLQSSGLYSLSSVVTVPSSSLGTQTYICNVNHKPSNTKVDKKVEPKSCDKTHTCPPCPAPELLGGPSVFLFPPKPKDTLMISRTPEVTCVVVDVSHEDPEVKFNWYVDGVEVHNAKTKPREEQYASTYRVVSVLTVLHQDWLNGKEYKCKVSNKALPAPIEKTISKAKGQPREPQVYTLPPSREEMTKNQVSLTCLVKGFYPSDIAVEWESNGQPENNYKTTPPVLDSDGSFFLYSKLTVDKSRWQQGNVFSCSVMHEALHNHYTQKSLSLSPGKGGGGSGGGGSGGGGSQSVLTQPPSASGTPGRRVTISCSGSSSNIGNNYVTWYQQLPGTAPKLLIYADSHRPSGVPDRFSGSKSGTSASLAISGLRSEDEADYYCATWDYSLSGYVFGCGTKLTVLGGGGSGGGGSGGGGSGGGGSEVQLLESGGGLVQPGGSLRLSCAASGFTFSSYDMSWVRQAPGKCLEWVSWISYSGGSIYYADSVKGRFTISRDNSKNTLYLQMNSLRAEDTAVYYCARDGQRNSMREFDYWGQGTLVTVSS
light: B3 light with R24K, G28D, S31D, Y32D, V33I, A34N, Y91S, N92L, S93R, W94T
notes: IgG1 N297A-scFv; also called 5D5(NA) x41B01 (1A10)
B9: 5D5(NA)xAB41 (bispecific antibody, human IgG1, kappa, N297A)
heavy: not shown
light: B3 light with R24K, G28D, S31D, Y32D, V33I, A34N, Y91S, N92L, S93R, W94T
notes: as for B7
B10: 5D5M4(NA)x41B01 M12 (bispecific antibody, human IgG1, kappa, N297A)
heavy: not shown
light: B3 light with R24K, G28D, S31D, Y32A, V33I, A34N, Y91S, N92L, S93R, W94T
notes: IgG1 N297A-(GS)9-scFv
B11: 5A6(NA)xAB41 (bispecific antibody, human IgG1, lambda, N297A)
heavy: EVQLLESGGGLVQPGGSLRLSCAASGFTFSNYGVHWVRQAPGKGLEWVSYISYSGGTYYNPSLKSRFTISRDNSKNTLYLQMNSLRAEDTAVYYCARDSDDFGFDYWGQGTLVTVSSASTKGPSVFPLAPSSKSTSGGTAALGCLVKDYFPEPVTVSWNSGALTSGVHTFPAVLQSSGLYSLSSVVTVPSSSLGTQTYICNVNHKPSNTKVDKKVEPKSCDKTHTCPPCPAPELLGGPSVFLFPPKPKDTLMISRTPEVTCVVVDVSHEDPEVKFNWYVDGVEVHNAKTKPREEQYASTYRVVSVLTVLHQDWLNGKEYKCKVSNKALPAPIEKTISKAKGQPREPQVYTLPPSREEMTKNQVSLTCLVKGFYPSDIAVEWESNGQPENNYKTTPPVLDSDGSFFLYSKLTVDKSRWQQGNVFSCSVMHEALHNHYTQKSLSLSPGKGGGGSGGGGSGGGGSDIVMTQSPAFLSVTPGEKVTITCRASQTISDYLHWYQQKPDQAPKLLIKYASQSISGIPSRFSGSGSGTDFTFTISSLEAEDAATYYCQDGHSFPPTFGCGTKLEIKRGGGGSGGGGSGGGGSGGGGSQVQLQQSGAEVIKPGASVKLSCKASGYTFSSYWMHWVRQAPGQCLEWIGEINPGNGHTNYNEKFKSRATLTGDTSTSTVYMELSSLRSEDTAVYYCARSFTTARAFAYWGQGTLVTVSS
light: QSVLTQPPSASGTPGQRVTISCQGDSLRSYYVNWYQQLPGTAPKLLIYDHSKRPTGVPDRFSGSKSGTSASLAISGLRSEDEADYYCQSYDSSTVVFGGGTKLTVLGQPKAAPSVTLFPPSSEELQANKATLVCLISDFYPGAVTVAWKADSSPVKAGVETTTPSKQSNNKYAASSYLSLTPEQWKSHRSYSCQVTHEGSTVEKTVAPAECS
notes: as for B7
B12: 5A6(NA)x41B01 M12 (bispecific antibody, human IgG1, lambda, N297A)
heavy: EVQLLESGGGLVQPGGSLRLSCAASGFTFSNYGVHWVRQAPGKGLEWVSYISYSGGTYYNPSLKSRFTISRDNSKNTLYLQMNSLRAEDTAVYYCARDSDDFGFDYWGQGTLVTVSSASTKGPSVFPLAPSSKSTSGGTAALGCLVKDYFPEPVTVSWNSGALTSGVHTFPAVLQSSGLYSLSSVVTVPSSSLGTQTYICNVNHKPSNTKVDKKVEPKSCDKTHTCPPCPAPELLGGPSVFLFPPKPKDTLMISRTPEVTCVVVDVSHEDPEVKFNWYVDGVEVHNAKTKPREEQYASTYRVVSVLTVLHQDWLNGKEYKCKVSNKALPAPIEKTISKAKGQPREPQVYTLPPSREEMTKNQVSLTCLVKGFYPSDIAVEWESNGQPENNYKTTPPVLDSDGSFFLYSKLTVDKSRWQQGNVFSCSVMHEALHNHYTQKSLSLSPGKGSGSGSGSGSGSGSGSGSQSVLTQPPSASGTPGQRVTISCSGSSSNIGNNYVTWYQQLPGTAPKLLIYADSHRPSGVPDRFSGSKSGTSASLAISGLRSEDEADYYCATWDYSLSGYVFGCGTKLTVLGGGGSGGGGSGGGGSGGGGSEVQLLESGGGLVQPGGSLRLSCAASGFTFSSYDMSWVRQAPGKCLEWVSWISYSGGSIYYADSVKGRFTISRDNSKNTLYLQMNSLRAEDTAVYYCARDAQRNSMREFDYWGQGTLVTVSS
light: B11 light
notes: also called 5A6(NA)x41B01 M12:WT; 5A6WT(NA)x41B01 M12
B13: 5A6(NA)x41B01 (bispecific antibody, human IgG1, lambda, N297A)
heavy: not shown
light: B11 light
notes: IgG1 N297A-scFv; also called 5A6(NA) x41B01 (1A10)
B14: 5A6(NA)x41B02 (bispecific antibody, human IgG1, lambda, N297A)
heavy: not shown
light: B11 light
notes: IgG1 N297A-scFv (VL-(G4S)4-VH); also called 5A6(NA) x41B02 (1A12)
B15: 5A6M6(NA)x41B01 M12 (bispecific antibody, human IgG1, lambda, N297A)
heavy: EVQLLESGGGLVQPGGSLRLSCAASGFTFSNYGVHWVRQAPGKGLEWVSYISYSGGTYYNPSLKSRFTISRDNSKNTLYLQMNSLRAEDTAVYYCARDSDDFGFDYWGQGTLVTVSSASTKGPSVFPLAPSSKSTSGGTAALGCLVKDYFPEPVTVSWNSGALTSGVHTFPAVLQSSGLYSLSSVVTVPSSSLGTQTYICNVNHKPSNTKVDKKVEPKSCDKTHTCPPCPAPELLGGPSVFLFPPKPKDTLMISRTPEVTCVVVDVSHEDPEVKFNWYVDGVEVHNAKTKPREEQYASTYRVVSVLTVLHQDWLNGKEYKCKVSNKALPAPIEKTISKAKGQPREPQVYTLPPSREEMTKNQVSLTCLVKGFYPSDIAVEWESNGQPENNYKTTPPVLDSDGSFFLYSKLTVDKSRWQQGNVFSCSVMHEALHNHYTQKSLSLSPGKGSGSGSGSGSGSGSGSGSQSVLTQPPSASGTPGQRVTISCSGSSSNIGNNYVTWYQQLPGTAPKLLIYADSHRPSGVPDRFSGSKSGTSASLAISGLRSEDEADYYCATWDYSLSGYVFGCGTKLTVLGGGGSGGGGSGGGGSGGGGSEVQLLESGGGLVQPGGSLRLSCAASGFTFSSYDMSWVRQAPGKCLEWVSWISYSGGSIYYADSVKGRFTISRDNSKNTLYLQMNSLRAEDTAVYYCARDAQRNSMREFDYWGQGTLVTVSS
light: B11 light with D25E, S92A
notes: IgG1 N297A-(GS)9-scFv

How the values were obtained:
[1] = molecular target: T1, Recombinant Human 4-1BB protein (human, UniProt Q07011 24-186); assay: BLI, Octet Red 96
T1 construct: also called h4-1BB; 4-1BB antigen
From the text: To explore the binding kinetics of the humanized antibody, this example performed the affinity ranking by using Octet Red 96.

[2] = molecular target: T2, human BCMA on cells (CHOK1-hBCMA; H929 endogenous BCMA) (human, UniProt Q02223 1-184); assay: FACS, 100 nM antibody, H929 cells
T2 construct: Cell-surface BCMA in FACS; also called mammalian expressed BCMA; native antigen
T2 sequence: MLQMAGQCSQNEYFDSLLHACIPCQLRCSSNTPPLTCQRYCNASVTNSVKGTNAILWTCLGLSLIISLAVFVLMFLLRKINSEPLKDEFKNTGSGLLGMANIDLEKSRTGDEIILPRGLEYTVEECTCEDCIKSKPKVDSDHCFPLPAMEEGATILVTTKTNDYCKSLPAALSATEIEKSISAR
Description: (§1) To evaluate the antigen binding property, the antibody candidates were analyzed for their bindings to BCMA expressed cells by FACS. Briefly, CHOK1 expressing human BCMA (CHOK1-hBCMA) or H929 expressing endogenous BCMA cells were treated with the 100 nM of indicated antibodies at 4° C. for 1 hr. CHOK1 cells were used for BCMA-negative control. After washing by FACS buffer (1% (w/v) BSA in PBS), cells were incubated with the FTTC-anti-human IgG antibody at 4° C. for 1 hr and then subjected to FACS analysis. As shown in FIGS. 2d-2f, the anti-BCMAx4-1BB antibodies bind to BCMA expressed CHOK1-hBCMA and H929 cell lines but not BCMA negative CHOK1.

[3] = molecular target: T3, human 4-1BB on GloResponse NFkB-luc2/4-1BB Jurkat cells (human, UniProt Q07011 24-255); assay: cell-based or functional assay
T3 sequence (Q07011 24-255): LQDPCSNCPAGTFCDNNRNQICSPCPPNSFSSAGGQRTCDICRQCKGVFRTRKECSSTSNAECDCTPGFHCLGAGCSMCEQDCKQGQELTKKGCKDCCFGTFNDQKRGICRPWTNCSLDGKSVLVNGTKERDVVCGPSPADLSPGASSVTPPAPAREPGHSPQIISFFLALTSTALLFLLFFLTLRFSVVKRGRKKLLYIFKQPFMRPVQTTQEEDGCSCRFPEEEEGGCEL

[4] = molecular target: T3, human 4-1BB on GloResponse …; assay: cell-based or functional assay; remark: listed apart in the source
[5] = molecular target: T2, human BCMA on cells (CHOK1-hBCMA; H929 …); assay: FACS, 100 nM antibody, CHOK1-hBCMA cells
Description: as §1

[6] = molecular target: T3, human 4-1BB on GloResponse …; assay: cell-based or functional assay; remark: listed apart in the source
human BCMA-Fc protein = molecular target: T4, human BCMA-Fc protein (human, UniProt Q02223 1-54); assay: DACE (dual antigen captured ELISA): plate coated with human BCMA-Fc, bispecific antibody titrated, then human 4-1BB-His; Abs at 450 nm
T4 construct: Coated antigen of the DACE
T4 sequence: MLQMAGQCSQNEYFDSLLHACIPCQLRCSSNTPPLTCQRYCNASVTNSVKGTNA

Recombinant Human BCMA = molecular target: T5, Recombinant Human BCMA (human, UniProt Q02223 1-54); assay: SPR, bispecific antibody on Protein A chip, antigen flowed
T5 construct: also called hBCMA; recombinant BCMA
T5 sequence: T4 sequence
Description: In the SPR experiment, the anti-BCMA/anti-4-1BB bispecific antibodies obtained in Example 3-5 were individually captured on flow-cells 2, 3 and 4, keeping the flow-cell 1 as reference, on a Protein A Chip on which an anti-BCMA/anti-4-1BB Bispecific antibody (5D5M4(NA)×41B01 M12 or 5A6M6(NA)×41B01 M12) had been immobilized by amine coupling. Recombinant Human BCMA or Human 4-1BB protein was flowed across the chip at concentration range from 100 nM to 6.25 nM for human BCMA or 250 nM to 15.625 nM for human 4-1BB and 0.78 nM at […] for 300 seconds, followed by a dissociation phase of 400 seconds. Regeneration was performed with 10 mM Glycine-HCl (pH 2.0).

Row | Binder | quantified FACS signal (name not given) [2] | 4-1BB reporter bioassay (NFkB-luc2/4-1BB Jurkat) with CHOK1-hBCMA cells, EC50 [3] [nM] | 4-1BB reporter bioassay (NFkB-luc2/4-1BB Jurkat) with H929 cells, EC50 [4] [nM] | quantified FACS signal (name not given) [5] | further results
1 | B1 | – | – | – | – | Kd [1]: 0.18 nM; koff [1]: 0.000119 s⁻¹; kon [1]: 658000 M⁻¹ s⁻¹
2 | B2 | – | – | – | – | Kd [1]: 1.01 nM; koff [1]: 0.000603 s⁻¹; kon [1]: 595000 M⁻¹ s⁻¹
3 | B3 | 14.9 | 0.003 | 12.1 | 484 | –
4 | B4 | 17.6 | 0.0316 | 5.76 | 493 | –
5 | B5 | 20.2 | 0.0314 | 10.9 | 602 | –
6 | B6 | – | – | – | – | In vitro 4-1BB activation (reporter bioassay) with H929 cells, EC50 [6]: 0.629 nM; In vitro 4-1BB activation (reporter bioassay) with MM1S cells, EC50 [6]: 2.66 nM; EC50 (read off the curve) (human BCMA-Fc protein): ~0.5 nM
7 | B7 | 14.1 | 0.0741 | – | 477 | –
8 | B8 | 17.9 | 0.0691 | 5.35 | 579 | –
9 | B9 | 19.7 | 0.0426 | – | 585 | –
10 | B10 | – | – | – | – | In vitro 4-1BB activation (reporter bioassay) with H929 cells, EC50 [6]: 0.377 nM; In vitro 4-1BB activation (reporter bioassay) with MM1S cells, EC50 [6]: 2.41 nM; EC50 (read off the curve) (human BCMA-Fc protein): ~0.4 nM; Kd (Recombinant Human BCMA): 16 nM; koff (Recombinant Human BCMA): 0.065 s⁻¹; kon (Recombinant Human BCMA): 4.07e+06 M⁻¹ s⁻¹
11 | B11 | 39.9 | 0.0397 | – | 636 | –
12 | B12 | – | – | – | – | In vitro 4-1BB activation (reporter bioassay) with H929 cells, EC50 [6]: 0.459 nM; In vitro 4-1BB activation (reporter bioassay) with MM1S cells, EC50 [6]: 2.26 nM; EC50 (read off the curve) (human BCMA-Fc protein): ~0.5 nM
13 | B13 | 43.8 | 0.0616 | 3.16 | 652 | –
14 | B14 | 40.3 | 0.0413 | 14.3 | 646 | –
15 | B15 | – | – | – | – | In vitro 4-1BB activation (reporter bioassay) with H929 cells, EC50 [6]: 0.165 nM; In vitro 4-1BB activation (reporter bioassay) with MM1S cells, EC50 [6]: 1.98 nM; EC50 (read off the curve) (human BCMA-Fc protein): ~0.3 nM; Kd (Recombinant Human BCMA): 22.6 nM; koff (Recombinant Human BCMA): 0.0119 s⁻¹; kon (Recombinant Human BCMA): 527000 M⁻¹ s⁻¹
